Reference: patent US20160362487A1

Experiments:
[1] = biological target: human IL-33 (R&D Systems, #3625-IL-010/CF) (human) (UniProt O95760); test: BLI; hIL-33 pre-mixed with mAb-2 H4H9667P
[2] = biological target: human IL-33 (R&D Systems, #3625-IL-010/CF) (human) (UniProt O95760); test: BLI; hIL-33 pre-mixed with mAb-2 H4H9670P
[3] = biological target: human IL-33 (R&D Systems, #3625-IL-010/CF) (human) (UniProt O95760); test: BLI; hIL-33 pre-mixed with mAb-2 H4H9676P
[4] = biological target: human IL-33 (R&D Systems, #3625-IL-010/CF) (human) (UniProt O95760); test: BLI; hIL-33 pre-mixed with mAb-2 H1M9559N
[5] = biological target: cynomolgus monkey IL-33 expressed with a C-terminal hexahistidine tag (cynomolgus monkey); test: BLI; mAb-1 on captured MfIL-33-6His
[6] = biological target: cynomolgus monkey IL-33 expressed with a C-terminal hexahistidine tag (cynomolgus monkey); test: BLI; captured MfIL-33-6His, mAb-1 step with Buffer
[7] = biological target: cynomolgus monkey IL-33 expressed with a C-terminal hexahistidine tag (cynomolgus monkey); test: BLI; captured MfIL-33-6His, mAb-1 step with Isotype control
[8] = biological target: cynomolgus monkey IL-33 expressed with a C-terminal hexahistidine tag (cynomolgus monkey); test: BLI; captured MfIL-33-6His pre-complexed with mAb-1 H1M9559N
[9] = biological target: cynomolgus monkey IL-33 expressed with a C-terminal hexahistidine tag (cynomolgus monkey); test: BLI; captured MfIL-33-6His pre-complexed with mAb-1 H1M9565N
[10] = biological target: cynomolgus monkey IL-33 expressed with a C-terminal hexahistidine tag (cynomolgus monkey); test: BLI; captured MfIL-33-6His pre-complexed with mAb-1 H1M9566N
[11] = biological target: cynomolgus monkey IL-33 expressed with a C-terminal hexahistidine tag (cynomolgus monkey); test: BLI; captured MfIL-33-6His pre-complexed with mAb-1 H4H9640P
[12] = biological target: cynomolgus monkey IL-33 expressed with a C-terminal hexahistidine tag (cynomolgus monkey); test: BLI; captured MfIL-33-6His pre-complexed with mAb-1 H4H9664P
[13] = biological target: cynomolgus monkey IL-33 expressed with a C-terminal hexahistidine tag (cynomolgus monkey); test: BLI; captured MfIL-33-6His pre-complexed with mAb-1 H4H9665P
[14] = biological target: cynomolgus monkey IL-33 expressed with a C-terminal hexahistidine tag (cynomolgus monkey); test: BLI; captured MfIL-33-6His pre-complexed with mAb-1 H4H9667P

Sequence of human IL-33 (R&D Systems, #3625-IL-010/CF) (human) (O95760 112-270 limits assumed): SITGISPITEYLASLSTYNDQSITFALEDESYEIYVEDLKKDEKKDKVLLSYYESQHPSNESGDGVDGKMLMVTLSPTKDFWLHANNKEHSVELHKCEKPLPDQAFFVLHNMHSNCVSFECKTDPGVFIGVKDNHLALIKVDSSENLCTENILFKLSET
Sequence of cynomolgus monkey IL-33 expressed with a C-terminal hexahistidine tag (cynomolgus monkey) (chain, as listed by the source limits assumed): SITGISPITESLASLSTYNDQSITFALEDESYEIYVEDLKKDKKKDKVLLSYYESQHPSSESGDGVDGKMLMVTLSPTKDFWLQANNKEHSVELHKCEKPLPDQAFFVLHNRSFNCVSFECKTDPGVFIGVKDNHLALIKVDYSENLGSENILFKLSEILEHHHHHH

Question: What does the source list for Isotype control 1 (antibody)?
Answer: mAb-1 Binding to the Pre-complex of mAb-2 & hIL-33 [1]: 0.01 nm; mAb-1 Binding to the Pre-complex of mAb-2 & hIL-33 [2]: 0.01 nm; mAb-1 Binding to the Pre-complex of mAb-2 & hIL-33 [3]: 0.01 nm

Question: For Isotype control 2 (antibody), which mAb-1 Binding to the Pre-complex of mAb-2 & hIL-33 [4] is on record?
Answer: The mAb-1 Binding to the Pre-complex of mAb-2 & hIL-33 was 0.02 nm.

Question: Which results are given for isotype control antibody?
Answer: mAb-1 Binding (nm) [5]: 0.01 nm; mAb-2 Binding to the Pre-complex of mAb-1 & MfIL-33-6xHis [6]: 0.03 nm; mAb-2 Binding to the Pre-complex of mAb-1 & MfIL-33-6xHis [7]: 0.01 nm; mAb-2 Binding to the Pre-complex of mAb-1 & MfIL-33-6xHis [8]: 0.01 nm; mAb-2 Binding to the Pre-complex of mAb-1 & MfIL-33-6xHis [9]: 0.04 nm; mAb-2 Binding to the Pre-complex of mAb-1 & MfIL-33-6xHis [10]: 0.04 nm; mAb-2 Binding to the Pre-complex of mAb-1 & MfIL-33-6xHis [11]: 0.02 nm; mAb-2 Binding to the Pre-complex of mAb-1 & MfIL-33-6xHis [12]: 0.02 nm; mAb-2 Binding to the Pre-complex of mAb-1 & MfIL-33-6xHis [13]: 0.03 nm; mAb-2 Binding to the Pre-complex of mAb-1 & MfIL-33-6xHis [14]: 0.03 nm
